# Measurements as given in publication PMC7978357, “Indole-3-acetic acid is a physiological inhibitor of TORC1 in yeast” (PLoS Genetics, 2021).
# Experiments:
# [1] = system: Nc1ncnc2c1ncn2[C@@H]1O[C@H](COP(=O)(O)OP(=O)(O)OP(=O)(O)O)[C@@H](O)[C@H]1O; experiment: purified protein; settings: Mg2+
# [2] = target: T1, TORC1 (Tor1 kinase subunit) (Saccharomyces cerevisiae, UniProt P35169); experiment: in vitro radioactive [γ-32P]-ATP kinase assay with purified TORC1, Lst4 loop substrate; enzyme kinetics; format: biochemical
# T1 construct: TORC1 complex purified from yeast via Tco89-TEV-TAP (quantified with respect to the Tor1 subunit); with Kog1, Lst8, Tco89 (TORC1 subunits)
# T1 sequence (P35169 whole entry): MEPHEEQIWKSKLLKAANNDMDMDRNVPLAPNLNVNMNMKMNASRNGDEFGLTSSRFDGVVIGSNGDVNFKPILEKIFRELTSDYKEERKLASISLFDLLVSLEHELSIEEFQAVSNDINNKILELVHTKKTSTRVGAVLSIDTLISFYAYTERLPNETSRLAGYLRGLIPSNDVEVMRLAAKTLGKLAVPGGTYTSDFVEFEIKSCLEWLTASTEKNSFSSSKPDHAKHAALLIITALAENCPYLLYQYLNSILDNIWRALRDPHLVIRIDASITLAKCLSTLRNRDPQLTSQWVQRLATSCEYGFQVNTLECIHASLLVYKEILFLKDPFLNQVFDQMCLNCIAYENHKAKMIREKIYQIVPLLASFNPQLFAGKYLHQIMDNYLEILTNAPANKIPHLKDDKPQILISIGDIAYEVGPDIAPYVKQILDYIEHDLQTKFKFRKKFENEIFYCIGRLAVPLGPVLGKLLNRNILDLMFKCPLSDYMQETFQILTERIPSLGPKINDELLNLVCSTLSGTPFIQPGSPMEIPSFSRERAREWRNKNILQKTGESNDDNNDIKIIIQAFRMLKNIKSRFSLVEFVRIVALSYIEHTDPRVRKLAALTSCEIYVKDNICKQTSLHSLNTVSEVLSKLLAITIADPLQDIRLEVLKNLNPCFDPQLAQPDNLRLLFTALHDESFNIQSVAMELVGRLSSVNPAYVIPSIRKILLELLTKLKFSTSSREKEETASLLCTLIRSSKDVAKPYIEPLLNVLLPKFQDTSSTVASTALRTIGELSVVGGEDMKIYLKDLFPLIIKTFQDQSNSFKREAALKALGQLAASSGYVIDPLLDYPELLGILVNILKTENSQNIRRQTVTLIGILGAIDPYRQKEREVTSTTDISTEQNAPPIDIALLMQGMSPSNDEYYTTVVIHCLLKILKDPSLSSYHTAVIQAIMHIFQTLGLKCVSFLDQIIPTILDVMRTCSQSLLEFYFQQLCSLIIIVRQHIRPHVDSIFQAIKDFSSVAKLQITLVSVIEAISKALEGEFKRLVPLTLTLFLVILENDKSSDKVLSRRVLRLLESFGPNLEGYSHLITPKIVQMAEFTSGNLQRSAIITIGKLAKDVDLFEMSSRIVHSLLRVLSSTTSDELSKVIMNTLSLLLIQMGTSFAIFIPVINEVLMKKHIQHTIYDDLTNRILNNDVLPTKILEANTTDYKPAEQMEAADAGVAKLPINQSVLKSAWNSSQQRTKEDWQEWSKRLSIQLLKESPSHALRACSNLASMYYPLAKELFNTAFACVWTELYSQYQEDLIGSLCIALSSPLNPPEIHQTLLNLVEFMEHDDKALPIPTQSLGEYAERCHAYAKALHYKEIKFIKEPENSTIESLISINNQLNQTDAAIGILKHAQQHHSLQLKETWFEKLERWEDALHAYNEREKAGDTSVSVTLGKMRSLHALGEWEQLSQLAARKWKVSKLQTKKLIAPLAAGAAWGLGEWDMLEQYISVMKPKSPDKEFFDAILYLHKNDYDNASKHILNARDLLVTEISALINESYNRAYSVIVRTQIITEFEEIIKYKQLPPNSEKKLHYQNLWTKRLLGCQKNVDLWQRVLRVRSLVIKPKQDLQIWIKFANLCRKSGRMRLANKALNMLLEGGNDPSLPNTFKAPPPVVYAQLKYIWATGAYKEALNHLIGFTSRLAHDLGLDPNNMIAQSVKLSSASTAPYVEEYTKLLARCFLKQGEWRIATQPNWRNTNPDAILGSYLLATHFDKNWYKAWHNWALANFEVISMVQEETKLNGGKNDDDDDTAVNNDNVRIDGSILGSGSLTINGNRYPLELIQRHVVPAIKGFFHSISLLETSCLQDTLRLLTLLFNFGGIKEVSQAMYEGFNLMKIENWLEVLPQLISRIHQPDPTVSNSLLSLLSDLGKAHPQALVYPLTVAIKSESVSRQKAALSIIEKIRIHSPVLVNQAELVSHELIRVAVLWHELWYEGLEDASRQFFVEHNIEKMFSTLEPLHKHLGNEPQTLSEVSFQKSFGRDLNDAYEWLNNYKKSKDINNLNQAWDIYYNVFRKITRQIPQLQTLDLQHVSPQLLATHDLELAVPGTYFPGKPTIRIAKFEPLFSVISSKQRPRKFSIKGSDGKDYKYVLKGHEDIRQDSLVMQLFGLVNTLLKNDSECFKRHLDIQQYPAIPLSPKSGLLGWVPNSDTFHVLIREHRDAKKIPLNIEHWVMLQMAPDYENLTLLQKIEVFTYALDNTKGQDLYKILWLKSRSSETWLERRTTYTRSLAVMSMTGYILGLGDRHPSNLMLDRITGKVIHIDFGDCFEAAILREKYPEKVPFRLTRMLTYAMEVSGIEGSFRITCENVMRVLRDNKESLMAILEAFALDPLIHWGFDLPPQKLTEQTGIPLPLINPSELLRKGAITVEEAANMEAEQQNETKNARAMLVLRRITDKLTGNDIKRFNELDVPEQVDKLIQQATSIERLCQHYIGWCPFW
# T1 sequence (P38873 whole entry partner): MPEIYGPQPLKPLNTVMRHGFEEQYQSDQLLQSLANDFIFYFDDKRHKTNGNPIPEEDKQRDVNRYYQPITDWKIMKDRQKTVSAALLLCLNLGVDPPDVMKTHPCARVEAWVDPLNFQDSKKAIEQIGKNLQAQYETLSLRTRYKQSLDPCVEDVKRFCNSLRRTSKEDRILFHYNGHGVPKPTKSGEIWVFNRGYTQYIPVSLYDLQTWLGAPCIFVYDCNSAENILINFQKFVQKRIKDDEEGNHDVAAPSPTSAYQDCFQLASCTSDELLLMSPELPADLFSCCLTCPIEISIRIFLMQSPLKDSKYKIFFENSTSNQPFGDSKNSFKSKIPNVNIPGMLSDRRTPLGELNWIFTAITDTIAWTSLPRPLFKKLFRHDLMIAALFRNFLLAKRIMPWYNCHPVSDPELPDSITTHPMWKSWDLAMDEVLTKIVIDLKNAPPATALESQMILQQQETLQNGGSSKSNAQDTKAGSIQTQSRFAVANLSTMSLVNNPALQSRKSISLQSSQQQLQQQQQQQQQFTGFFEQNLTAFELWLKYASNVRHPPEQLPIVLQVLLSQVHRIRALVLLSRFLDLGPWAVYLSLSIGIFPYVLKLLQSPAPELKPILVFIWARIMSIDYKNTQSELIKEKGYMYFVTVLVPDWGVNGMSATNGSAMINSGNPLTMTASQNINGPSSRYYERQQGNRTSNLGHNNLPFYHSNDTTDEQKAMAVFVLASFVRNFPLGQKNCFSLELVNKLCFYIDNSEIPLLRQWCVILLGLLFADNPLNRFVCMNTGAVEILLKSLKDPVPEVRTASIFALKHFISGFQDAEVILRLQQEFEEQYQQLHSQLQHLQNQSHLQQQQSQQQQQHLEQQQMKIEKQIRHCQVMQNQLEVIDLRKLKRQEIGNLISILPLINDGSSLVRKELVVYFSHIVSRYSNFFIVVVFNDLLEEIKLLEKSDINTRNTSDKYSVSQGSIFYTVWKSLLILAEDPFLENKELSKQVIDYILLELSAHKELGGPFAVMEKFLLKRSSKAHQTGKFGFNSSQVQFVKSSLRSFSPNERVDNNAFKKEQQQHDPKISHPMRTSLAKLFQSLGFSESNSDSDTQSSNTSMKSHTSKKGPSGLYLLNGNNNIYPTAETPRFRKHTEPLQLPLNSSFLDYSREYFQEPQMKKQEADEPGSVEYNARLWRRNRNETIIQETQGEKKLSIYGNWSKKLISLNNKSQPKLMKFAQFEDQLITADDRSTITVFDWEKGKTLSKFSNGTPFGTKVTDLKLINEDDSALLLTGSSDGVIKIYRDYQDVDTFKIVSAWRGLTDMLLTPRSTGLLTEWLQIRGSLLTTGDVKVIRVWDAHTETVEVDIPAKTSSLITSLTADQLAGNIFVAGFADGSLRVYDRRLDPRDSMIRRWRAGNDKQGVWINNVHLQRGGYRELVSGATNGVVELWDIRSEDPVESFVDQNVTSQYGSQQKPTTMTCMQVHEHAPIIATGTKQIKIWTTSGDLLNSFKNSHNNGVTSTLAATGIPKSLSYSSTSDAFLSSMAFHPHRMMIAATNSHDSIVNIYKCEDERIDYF
# T1 sequence (P41318 whole entry partner): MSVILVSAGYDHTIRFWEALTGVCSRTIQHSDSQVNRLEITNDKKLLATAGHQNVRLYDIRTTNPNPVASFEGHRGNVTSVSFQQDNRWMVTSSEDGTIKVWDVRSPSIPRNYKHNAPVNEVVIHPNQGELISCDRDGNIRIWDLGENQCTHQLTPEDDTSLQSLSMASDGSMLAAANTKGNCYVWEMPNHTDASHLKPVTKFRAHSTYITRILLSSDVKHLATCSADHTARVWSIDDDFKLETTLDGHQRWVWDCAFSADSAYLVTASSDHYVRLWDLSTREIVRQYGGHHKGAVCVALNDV
Ki [2] [nM],Molecule,Km [1] [µM]
,TORC1 (Tor1 kinase subunit) (Saccharomyces cerevisiae S288C),50.5
2400,"O=C(O)Cc1c[nH]c2ccccc12 [IAA, Indole-3-acetic acid]",
